Experimental findings from the supplement of paper PMC10126150 are described below.

± gives the standard deviation of the averaged measurements.
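Further: ATP exposure 15 min at 22 °C before imaging.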

This data set deals with ATP. Briefly: switch fluorescence ratio, 500 uM ATP over buffer (Cy3 cluster intensity, sum of 5 cycles each) (fold (ratio)); higher = stronger signal-on switching upon ATP binding; sequences stand for … in TCGTCGGCAGCGTCAGATGTGTATAAGAGACAGTTTTTTTTTTTTTTTTTTTTTTTTT…TC. The following applies: aptamer strand: ATP DNA aptamer (quencher-CACCTGGGGGAGTATTGCGGAGGAAGG + anchor), 100 nM annealed; ATP concentration: 500 uM. The gist of the method:
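The fluorescence ratio divides summed target-cycle Cy3 intensity by summed buffer-cycle Cy3 intensity for each cluster and is averaged per switch-domain sequence. Cy3-labelled switching-strand clusters on a modified Illumina MiSeq flow-cell were annealed to 100 nM quencher-labelled ATP aptamer, then imaged in selection buffer and again after 15 min with 500 uM ATP at 22 °C. Five such cycles were run, with NaOH stripping and re-annealing between them, and clusters outside 100-1000 RFU were excluded.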
Regarding CAGTAAAGTG, the switch fluorescence ratio is 0.998 ± 0.017.

GAGGTCATTA: the switch fluorescence ratio worked out at 0.9895 ± 0.0023.

Take CATATTTGGG: the switch fluorescence ratio is 0.981 ± 0.081.

Regarding TAAGTTGAGC, the switch fluorescence ratio was 0.965 ± 0.057.

Consider CGTTGCGCTA, for which the switch fluorescence ratio is 1.1 ± 0.012.

As for TGGGGATTAC, the switch fluorescence ratio was 0.983 ± 0.012.

With TTTTGTGTCA, the switch fluorescence ratio came out at 0.969 ± 0.029.

On to GTGGTTTGGT, for which the switch fluorescence ratio came out at 0.979 ± 0.035.

With TTTAGCTGGG, the switch fluorescence ratio stood at 1.01 ± 0.019.

As for TAATGTTACT, the switch fluorescence ratio is 1.04 ± 0.039.

Turning to TGACTTTTGT, the switch fluorescence ratio was 0.98 ± 0.0015.

For the sequence CGGGTGCAAA, the switch fluorescence ratio stood at 1.08 ± 0.016.

As to GGGTTGTGCT, the switch fluorescence ratio is 0.953 ± 0.015.

As to AGGGCTGACG, the switch fluorescence ratio is 1.02 ± 0.024.

On to TTTTTGTCCG, for which the switch fluorescence ratio was 1.02 ± 0.042.

With GGGGCCTTTA, the switch fluorescence ratio came to 0.9592 ± 0.0049.

Turning to TAACGGGGGG, the switch fluorescence ratio turned out to be 0.999 ± 0.045.

With CAGTCTTATT, the switch fluorescence ratio worked out at 0.9712 ± 0.0087.

Regarding TATTGAGAGC, the switch fluorescence ratio turned out to be 1.01 ± 0.064.

Turning to TGGGACGGTA, the switch fluorescence ratio was 1 ± 0.022.

As for CAGTGGGGTG, the switch fluorescence ratio was 0.993 ± 0.03.

On to GGAATGGGTT, for which the switch fluorescence ratio worked out at 1.01 ± 0.023.

With ATAAAGGGCC, the switch fluorescence ratio came to 0.99 ± 0.012.

As for TACGATAATC, the switch fluorescence ratio was found to be 1.146 ± 0.011.

On to CATATCGGAA, for which the switch fluorescence ratio came to 1.187 ± 0.0077.

On to TTCTGCTGCT, for which the switch fluorescence ratio was determined as 1.02 ± 0.02.

With GCGACCCTTT, the switch fluorescence ratio amounted to 1.118 ± 0.0042.

For ATAGGGTACG, the switch fluorescence ratio came out at 1.06 ± 0.022.

Turning to GCCTTTTGCT, the switch fluorescence ratio is 0.988 ± 0.018.

Turning to AGTTGTTACA, the switch fluorescence ratio came out at 1.01 ± 0.032.

Regarding ATCAGAGGTA, the switch fluorescence ratio turned out to be 1.01 ± 0.014.

GAGTTTGTCA: the switch fluorescence ratio is 0.9917 ± 0.0087.

Regarding AACGGCCCTG, the switch fluorescence ratio came to 1.03 ± 0.026.

As to AGTATTTTGC, the switch fluorescence ratio is 0.969 ± 0.085.

Take AGAATCGGCA: the switch fluorescence ratio was 0.997 ± 0.031.

Regarding GCAGTCTGCC, the switch fluorescence ratio worked out at 1.02 ± 0.07.

As for GAAGGTGGGA, the switch fluorescence ratio is 1.038 ± 0.0092.

As for TTATTTATGC, the switch fluorescence ratio stood at 1.02 ± 0.055.

For the sequence ATGAGTGGCT, the switch fluorescence ratio came out at 0.999 ± 0.054.

Take CTGTGGTTTT: the switch fluorescence ratio was found to be 0.98 ± 0.034.

In the case of TAGGGGCTTG, the switch fluorescence ratio came out at 1.014 ± 0.0011.

In the case of TTCGCGGGGG, the switch fluorescence ratio was 0.979 ± 0.011.

As to TAGTCTGTGG, the switch fluorescence ratio is 0.993 ± 0.033.

Consider GTGAGGATTG, for which the switch fluorescence ratio was 0.98581 ± 8e-05.

For the sequence CGCGACGAGT, the switch fluorescence ratio was 0.9823 ± 0.0053.

For the sequence TCGACGCGCC, the switch fluorescence ratio was 5.12 ± 0.52.

On to TTATGGGGTA, for which the switch fluorescence ratio came out at 1.04 ± 0.049.

With GATCCTGGGC, the switch fluorescence ratio was 1.03 ± 0.015.

In the case of TTATTGGTCC, the switch fluorescence ratio came out at 0.989 ± 0.045.

As for GCCGGGATGG, the switch fluorescence ratio was 1 ± 0.031.

In the case of TATCTCTTTT, the switch fluorescence ratio was determined as 1.01 ± 0.041.

Turning to GAACTAATAT, the switch fluorescence ratio turned out to be 1.01 ± 0.017.

In the case of TTGATGTGTT, the switch fluorescence ratio is 1 ± 0.028.

In the case of AGGGTATGAA, the switch fluorescence ratio came to 0.998 ± 0.022.

Regarding TAAATGTCTT, the switch fluorescence ratio was found to be 1.025 ± 0.0077.

As to AATGGGGATT, the switch fluorescence ratio is 1.01 ± 0.035.

On to AGTTATACAA, for which the switch fluorescence ratio came out at 1.01 ± 0.037.

For GGCATTAGTT, the switch fluorescence ratio is 0.992 ± 0.043.

As for TGCGGCGGGG, the switch fluorescence ratio turned out to be 1.07 ± 0.035.

For the sequence GGAGGGGTCG, the switch fluorescence ratio stood at 1.02 ± 0.033.

In the case of TAAAGCGGGC, the switch fluorescence ratio amounted to 1.05 ± 0.043.

TGTGGTCCAA: the switch fluorescence ratio was determined as 0.9855 ± 0.0036.

For CGTCGGGGGC, the switch fluorescence ratio was determined as 1.005 ± 0.0096.

Turning to TTTTTTGTCC, the switch fluorescence ratio is 1.01 ± 0.018.

Turning to AAACGAGGGA, the switch fluorescence ratio worked out at 0.997 ± 0.051.

Turning to TTGGACATGG, the switch fluorescence ratio was 0.963 ± 0.012.

For AATTTGCATG, the switch fluorescence ratio is 0.978 ± 0.013.

On to CTCTAATCGG, for which the switch fluorescence ratio amounted to 1.018 ± 0.0097.

On to CTAAATCGGC, for which the switch fluorescence ratio turned out to be 1.03 ± 0.035.

In the case of TTTGCTGAAC, the switch fluorescence ratio came to 1.065 ± 0.0086.

Regarding GCAATCTGGG, the switch fluorescence ratio is 1.38 ± 0.079.

For AAGAGAAGTT, the switch fluorescence ratio amounted to 0.9938 ± 0.0088.

As for GGAATGTGGT, the switch fluorescence ratio turned out to be 1.027 ± 0.002.

On to GCGAGAGAGT, for which the switch fluorescence ratio amounted to 0.99812 ± 0.0009.

For the sequence CGTTATGAGG, the switch fluorescence ratio worked out at 0.991 ± 0.011.

In the case of ATTAAAGCCC, the switch fluorescence ratio was found to be 1.02 ± 0.039.

Regarding AGCAGGAAGG, the switch fluorescence ratio turned out to be 0.9956 ± 0.0041.

On to TGAGCAAGGT, for which the switch fluorescence ratio stood at 1.203 ± 0.0039.

As for ATAATATTGG, the switch fluorescence ratio turned out to be 0.995 ± 0.013.
